In US20190262431:

T1: recombinant Shp-2
T1 sequence (Q06124 2-593, species assumed, looked up): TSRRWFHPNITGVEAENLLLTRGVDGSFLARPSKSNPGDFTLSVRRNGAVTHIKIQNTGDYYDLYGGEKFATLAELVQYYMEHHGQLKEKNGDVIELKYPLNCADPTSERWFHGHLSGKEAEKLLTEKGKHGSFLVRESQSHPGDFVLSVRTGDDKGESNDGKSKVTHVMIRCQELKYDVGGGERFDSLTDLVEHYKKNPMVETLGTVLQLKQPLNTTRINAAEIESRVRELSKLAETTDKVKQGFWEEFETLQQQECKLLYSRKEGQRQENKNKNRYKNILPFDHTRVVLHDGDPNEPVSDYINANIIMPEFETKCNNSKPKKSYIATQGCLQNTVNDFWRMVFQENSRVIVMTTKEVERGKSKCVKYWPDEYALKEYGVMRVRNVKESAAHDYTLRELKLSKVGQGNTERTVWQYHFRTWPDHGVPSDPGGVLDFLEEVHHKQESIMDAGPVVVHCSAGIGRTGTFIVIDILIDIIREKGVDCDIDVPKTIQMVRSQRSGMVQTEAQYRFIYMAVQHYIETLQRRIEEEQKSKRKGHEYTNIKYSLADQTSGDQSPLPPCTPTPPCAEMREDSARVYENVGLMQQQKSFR

B1: full length human Cbl-b (Abnova) (protein)
chain: MANSMNGRNPGGRGGNPRKGRILGIIDAIQDAVGPPKQAAADRRTVEKTWKLMDKVVRLCQNPKLQLKNSPPYILDILPDTYQHLRLILSKYDDNQKLAQLSENEYFKIYIDSLMKKSKRAIRLFKEGKERMYEEQSQDRRNLTKLSLIFSHMLAEIKAIFPNGQFQGDNFRITKADAAEFWRKFFGDKTIVPWKVFRQCLHEVHQISSGLEAMALKSTIDLTCNDYISVFEFDIFTRLFQPWGSILRNWNFLAVTHPGYMAFLTYDEVKARLQKYSTKPGSYIFRLSCTRLGQWAIGYVTGDGNILQTIPHNKPLFQALIDGSREGFYLYPDGRSYNPDLTGLCEPTPHDHIKVTQEQYELYCEMGSTFQLCKICAENDKDVKIEPCGHLMCTSCLTAWQESDGQGCPFCRCEIKGTEPIIVDPFDPRDEGSRCCSIIDPFGMPMLDLDDDDDREESLMMNRLANVRKCTDRQNSPVTSPGSSPLAQRRKPQPDPLQIPHLSLPPVPPRLDLIQKGIVRSPCGSPTGSPKSSPCMVRKQDKPLPAPPPPLRDPPPPPPERPPPIPPDNRLSRHIHHVESVPSRDPPMPLEAWCPRDVFGTNQLVGCRLLGEGSPKPGITASSNVNGRHSRVGSDPVLMRKHRRHDLPLEGAKVFSNGHLGSEEYDVPPRLSPPPPVTTLLPSIKCTGPLANSLSEKTRDPVEEDDDEYKIPSSHPVSLNSQPSHCHNVKPPVRSCDNGHCMLNGTHGPSSEKKSNIPDLSIYLKGDVFDSASDPVPLPPARPPTRDNPKHGSSLNRTPSDYDLLIPPLGEDAFDALPPSLPPPPPPARHSLIEHSKPPGSSSRPSSGQDLFLLPSDPFVDLASGQVPLPPARRLPGENVKTNRTSQDYDQLPSCSDGSQAPARPPKPRPRRTAPEIHHRKPHGPEAALENVDAKIAKLMGEGYAFEEVKRALEIAQNNVEVARSILREFAFPPPVSPRLNL
B2: human Cbl-b^29-483 (recombinant, GST fusion protein) (protein)
chain: IQDAVGPPKQAAADRRTVEKTWKLMDKVVRLCQNPKLQLKNSPPYILDILPDTYQHLRLILSKYDDNQKLAQLSENEYFKIYIDSLMKKSKRAIRLFKEGKERMYEEQSQDRRNLTKLSLIFSHMLAEIKAIFPNGQFQGDNFRITKADAAEFWRKFFGDKTIVPWKVFRQCLHEVHQISSGLEAMALKSTIDLTCNDYISVFEFDIFTRLFQPWGSILRNWNFLAVTHPGYMAFLTYDEVKARLQKYSTKPGSYIFRLSCTRLGQWAIGYVTGDGNILQTIPHNKPLFQALIDGSREGFYLYPDGRSYNPDLTGLCEPTPHDHIKVTQEQYELYCEMGSTFQLCKICAENDKDVKIEPCGHLMCTSCLTAWQESDGQGCPFCRCEIKGTEPIIVDPFDPRDEGSRCCSIIDPFGMPMLDLDDDDDREESLMMNRLANVRKCTDRQNSPVTSPGS

What was measured:
[1] = biological target: active (phosphorylated) human Syk (Merck Millipore), P43405
[2] = biological target: T1, recombinant Shp-2
[3] = biological target: inactive (non-phosphorylated) human Syk-GST (Life technologies), P43405

Protein	in vitro poly-ubiquitination of recombinant active Syk (Western blot) [1]	in vitro poly-ubiquitination of recombinant Shp-2 [2]	in vitro poly-ubiquitination of active Syk (Western blot) [1]	in vitro poly-ubiquitination of inactive Syk (Syk-GST) (Western blot) [3]
B1	robust poly-ubiquitination of recombinant active Syk was observed	No poly-ubiquitination of recombinant Shp-2 was detected in these assays	–	–
B2	–	–	still exhibited poly-ubiquitination activity towards Syk	non-phosphorylated recombinant Syk showed strongly diminished poly-ubiquitination by Cbl-d^29-483
